Columns and labels:
[1] = target: recombinant BB0238 Y37A (rY37A) (Borrelia burgdorferi B31); assay: SEC; analytical size exclusion chromatography on a calibrated Superose 12 column; apparent molecular masses from a standard curve
[2] = target: recombinant BB0238 Y37A (rY37A) (Borrelia burgdorferi B31); assay: MST; 10 nM target protein labelled with Red-tris-NTA dye; 12-point 1:1 serial dilution of the ligand from 20 µM; PBS + 0.05% Tween-20, pH 7.4; 40% MST power, 10% LED power; TJump analysis, KD fit model of 1:1 stoichiometry; three biological replicates
[3] = target: recombinant BB0238 P65A (rP65A) (Borrelia burgdorferi B31); assay: as above
[4] = target: recombinant BB0238 P65A (rP65A) (Borrelia burgdorferi B31); assay: SEC; analytical size exclusion chromatography on a calibrated Superose 12 column; apparent molecular masses from a standard curve
[5] = target: recombinant wild-type BB0238 (rBB0238^WT) (Borrelia burgdorferi B31) (UniProt O51254); assay: MST; 10 nM target protein labelled with Red-tris-NTA dye; 12-point 1:1 serial dilution of the ligand from 20 µM; PBS + 0.05% Tween-20, pH 7.4; 40% MST power, 10% LED power; TJump analysis, KD fit model of 1:1 stoichiometry; three biological replicates
[6] = target: recombinant BB0323 (rBB0323) (Borrelia burgdorferi) (UniProt O51302); assay: as above
[7] = target: the molecule itself; assay: SEC; analytical size exclusion chromatography on a calibrated Superose 12 column; apparent molecular masses from a standard curve
[8] = target: T1, recombinant BB0323 (rBB0323) (Borrelia burgdorferi, UniProt O51302 1-377, labelled with NanoTemper Red-tris-NTA dye (only in the MST with BB0108)); assay: MST; 10 nM target protein labelled with Red-tris-NTA dye; 12-point 1:1 serial dilution of the ligand from 20 µM; PBS + 0.05% Tween-20, pH 7.4; 40% MST power, 10% LED power; TJump analysis, KD fit model of 1:1 stoichiometry; three biological replicates; conditions: both partners purified
T1 sequence: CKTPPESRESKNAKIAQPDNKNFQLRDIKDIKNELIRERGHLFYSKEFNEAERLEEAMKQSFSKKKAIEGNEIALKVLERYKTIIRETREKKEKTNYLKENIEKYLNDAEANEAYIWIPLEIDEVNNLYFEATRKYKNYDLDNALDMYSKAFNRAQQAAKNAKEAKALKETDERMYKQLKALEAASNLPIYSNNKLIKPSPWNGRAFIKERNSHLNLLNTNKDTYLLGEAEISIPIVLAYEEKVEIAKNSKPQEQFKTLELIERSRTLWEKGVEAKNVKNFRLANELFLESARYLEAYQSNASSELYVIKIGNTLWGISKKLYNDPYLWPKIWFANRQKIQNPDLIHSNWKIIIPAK

recombinant BB0238 Y37A (rY37A) (natural protein)
stoichiometry N [1]: 2

recombinant BB0323 (rBB0323) (from UniProt O51302 1-377) (natural protein)
Kd [2]: 658 nM | Kd [3]: 702 nM

recombinant BB0238 P65A (rP65A) (natural protein)
stoichiometry N [4]: 2

recombinant BB0108 (enzyme)
Kd [5]: 1890 nM | Kd [6]: 2330 nM

B1: recombinant wild-type BB0238 (rBB0238^WT) (natural protein)
chain: SSYIDKQKELAIFYYEVGQRYINVGKIKKGKLFQAKALKIYPDLKKGFDIKLAVKELDARIKDDNPKVVMLEDIKLEEIPGIVHEKIEINDFTNAPKIEYIAQRERSKNQDKIIKFQFGKFARALISRNFDLFDSVIADKVNVMGQFESKNDFISTLSSASSKADADELEYLSVDDYYDLKSLKISKSNDTSFAVNVNAKKNDVTKNFPFWKERQTLIFTTEDDNNWFLSSIN
modifications: labelled with NanoTemper Red-tris-NTA dye (in MST only)
stoichiometry N [7]: 2 | Kd [8]: 1000 nM
